Reference: patent US20110118131A1 (published 2011)
Substitutions are numbered along the chain they refer to. Names and notes keep the numbering of the source.

B1: XPA23 light chain P95H (Fab, V domains shown)
VH: EVQLLESGGGLVQPGGSLRLSCAASGFTFSKYFMFWVRQAPGKGLEWVSVISPSGGMTRYADSVKGRFTISRDNSKNTLYLQMNSLRAEDTAVYYCARVGYGGNSDYWGQGTLVTVSS
VL: DIQMTQSPSSVSASVGDRLTIICRASQDINRWLAWYQQTPGNAPKLLIHSATSLQSGVPSRFSGSGSGTDFTLTINSLQPEDFATYYCQQADSFHLTFGGGTKVEIK
B2: XPA23 light chain Q27L (Fab, V domains shown)
VH: B1 VH
VL: B1 VL with Q27L, H95P
B3: XPA23 light chain S50E (Fab, V domains shown)
VH: B1 VH
VL: B1 VL with S50E, H95P
B4: XPA23 light chain R31V (Fab, V domains shown)
VH: B1 VH
VL: B1 VL with R31V, H95P
B5: XPA23 light chain Q27G (Fab, V domains shown)
VH: B1 VH
VL: B1 VL with Q27G, H95P
B6: XPA23 light chain Q27V (Fab, V domains shown)
VH: B1 VH
VL: B1 VL with Q27V, H95P
B7: XPA23 light chain S50D (Fab, V domains shown)
VH: B1 VH
VL: B1 VL with S50D, H95P
B8: XPA23 light chain R31E (Fab, V domains shown)
VH: B1 VH
VL: B1 VL with R31E, H95P
B9: XPA23 light chain Q27H (Fab, V domains shown)
VH: B1 VH
VL: B1 VL with Q27H, H95P
B10: XPA23 light chain P95Y (Fab, V domains shown)
VH: B1 VH
VL: B1 VL with H95Y
B11: XPA23 light chain P95N (Fab, V domains shown)
VH: B1 VH
VL: B1 VL with H95N
B12: XPA23 light chain R31N (Fab, V domains shown)
VH: B1 VH
VL: B1 VL with R31N, H95P
B13: XPA23 light chain Q27A (Fab, V domains shown)
VH: B1 VH
VL: B1 VL with Q27A, H95P
B14: XPA23 light chain P95W (Fab, V domains shown)
VH: B1 VH
VL: B1 VL with H95W
B15: XPA23 light chain Q27K (Fab, V domains shown)
VH: B1 VH
VL: B1 VL with Q27K, H95P
B16: XPA23 light chain R31T (Fab, V domains shown)
VH: B1 VH
VL: B1 VL with R31T, H95P
B17: XPA23 light chain R31D (Fab, V domains shown)
VH: B1 VH
VL: B1 VL with R31D, H95P
B18: XPA23 light chain P95S (Fab, V domains shown)
VH: B1 VH
VL: B1 VL with H95S
B19: XPA23 light chain R31S (Fab, V domains shown)
VH: B1 VH
VL: B1 VL with R31S, H95P
B20: XPA23 light chain Q27F (Fab, V domains shown)
VH: B1 VH
VL: B1 VL with Q27F, H95P
B21: XPA23 light chain S50A (Fab, V domains shown)
VH: B1 VH
VL: B1 VL with S50A, H95P
B22: XPA23 light chain R31A (Fab, V domains shown)
VH: B1 VH
VL: B1 VL with R31A, H95P
B23: XPA23 light chain Q27S (Fab, V domains shown)
VH: B1 VH
VL: B1 VL with Q27S, H95P
B24: XPA23 light chain S50F (Fab, V domains shown)
VH: B1 VH
VL: B1 VL with S50F, H95P
B25: XPA23 light chain Q27T (Fab, V domains shown)
VH: B1 VH
VL: B1 VL with Q27T, H95P
B26: XPA23 light chain R31L (Fab, V domains shown)
VH: B1 VH
VL: B1 VL with R31L, H95P
B27: XPA23 light chain P95R (Fab, V domains shown)
VH: B1 VH
VL: B1 VL with H95R
B28: XPA23 light chain R31I (Fab, V domains shown)
VH: B1 VH
VL: B1 VL with R31I, H95P
B29: XPA23 light chain Q27D (Fab, V domains shown)
VH: B1 VH
VL: B1 VL with Q27D, H95P
B30: XPA23 light chain Q27W (Fab, V domains shown)
VH: B1 VH
VL: B1 VL with Q27W, H95P
B31: XPA23 light chain Q27I (Fab, V domains shown)
VH: B1 VH
VL: B1 VL with Q27I, H95P
B32: XPA23 light chain R31G (Fab, V domains shown)
VH: B1 VH
VL: B1 VL with R31G, H95P
B33: XPA23 light chain R31P (Fab, V domains shown)
VH: B1 VH
VL: B1 VL with R31P, H95P
B34: XPA23 light chain R31H (Fab, V domains shown)
VH: B1 VH
VL: B1 VL with R31H, H95P
B35: XPA23 light chain Q27E (Fab, V domains shown)
VH: B1 VH
VL: B1 VL with Q27E, H95P
B36: XPA23 light chain R31F (Fab, V domains shown)
VH: B1 VH
VL: B1 VL with R31F, H95P
B37: XPA23 light chain R31W (Fab, V domains shown)
VH: B1 VH
VL: B1 VL with R31W, H95P
B38: XPA23 light chain Q27R (Fab, V domains shown)
VH: B1 VH
VL: B1 VL with Q27R, H95P
B39: XPA23 light chain S50G (Fab, V domains shown)
VH: B1 VH
VL: B1 VL with S50G, H95P
B40: XPA23 light chain Q27N (Fab, V domains shown)
VH: B1 VH
VL: B1 VL with Q27N, H95P
B41: XPA23 light chain Q27P (Fab, V domains shown)
VH: B1 VH
VL: B1 VL with Q27P, H95P
B42: XPA23 light chain R31Y (Fab, V domains shown)
VH: B1 VH
VL: B1 VL with R31Y, H95P
B43: XPA23 light chain P95K (Fab, V domains shown)
VH: B1 VH
VL: B1 VL with H95K
B44: XPA23 light chain R31K (Fab, V domains shown)
VH: B1 VH
VL: B1 VL with R31K, H95P
B45: XPA23 light chain R31Q (Fab, V domains shown)
VH: B1 VH
VL: B1 VL with R31Q, H95P
B46: XPA23 light chain P95Q (Fab, V domains shown)
VH: B1 VH
VL: B1 VL with H95Q

molecular target: T1, IL-1β (UniProt P01584 117-269); assay: Biacore, periplasmic extract
T1 construct: Antigen immobilised on the Biacore chip

| binding result | fold difference in affinity vs original [fold] | Binder |
| --- | --- | --- |
| no binding |  | B1 |
|  | 0.83 | B2 |
|  | 0.02 | B3 |
|  | 0.44 | B4 |
| no binding |  | B5 |
| no binding |  | B6 |
| no binding |  | B7 |
| no binding |  | B8 |
|  | 1.09 | B9 |
| no binding |  | B10 |
| no binding |  | B11 |
|  | 0.38 | B12 |
|  | 1.47 | B13 |
| no binding |  | B14 |
| no binding |  | B15 |
|  | 0.24 | B16 |
|  | 11.1 | B17 |
|  | 4.05 | B18 |
|  | 0.44 | B19 |
|  | 2.96 | B20 |
|  | 0.13 | B21 |
|  | 8.48 | B22 |
|  | 3.3 | B23 |

| binding result | fold difference in affinity vs original [fold] | Binder |
| --- | --- | --- |
| no binding |  | B24 |
|  | 0.64 | B25 |
|  | 0.51 | B26 |
| no binding |  | B27 |
|  | 0.68 | B28 |
|  | 1.07 | B29 |
| no binding |  | B30 |
|  | 0.82 | B31 |
|  | 0.92 | B32 |
| no binding |  | B33 |
| no binding |  | B34 |
|  | 1.08 | B35 |
|  | 0.92 | B36 |
|  | 0.43 | B37 |
|  | 0.89 | B38 |
|  | 0.14 | B39 |
| no binding |  | B40 |
| no binding |  | B41 |
| no binding |  | B42 |
| no binding |  | B43 |
|  | 1.18 | B44 |
|  | 0.27 | B45 |
| no binding |  | B46 |
